B1: CE115HA000 N31I (antibody, human IgG1, kappa, L234A L235A, N297A, name in Kabat numbering)
heavy: QVQLVESGGGVVQPGRSLRLSCAASGFTFSIAWMHWVRQAPGKGLEWVAQIKAKSNNYATYYAESVKGRFTISRDDSKNSLYLQMNSLKTEDTAVYYCRYVHYGAYYGVDAWGQGTTVTVSSASTKGPSVFPLAPSSKSTSGGTAALGCLVKDYFPEPVTVSWNSGALTSGVHTFPAVLQSSGLYSLSSVVTVPSSSLGTQTYICNVNHKPSNTKVDKKVEPKSCDKTHTCPPCPAPEAAGGPSVFLFPPKPKDTLMISRTPEVTCVVVDVSHEDPEVKFNWYVDGVEVHNAKTKPREEQYASTYRVVSVLTVLHQDWLNGKEYKCKVSNKALPAPIEKTISKAKGQPREPQVYTLPPSRCELTKNQVSLSCAVKGFYPSDIAVEWESNGQPENNYKTTPPVLDSDGSFFLVSKLTVDKSRWQQGNVFSCSVMHEALHNHYTQKSLSLSPDYKDDDDK
chain: EPKSSDKTHTCPPCPAPELLGGPSVFLFPPKPKDTLMISRTPEVTCVVVDVSHEDPEVKFNWYVDGVEVHNAKTKPREEQYNSTYRVVSVLTVLHQDWLNGKEYKCKVSNKALPAPIEKTISKAKGQPREPQVCTLPPSRDELTKNQVSLWCLVKGFYPSDIAVEWESNGQPENNYKTTPPVLDSDGSFFLYSKLTVDKSRWQQGNVFSCSVMHEALHNRYTQKSLSLSP
light: DIVMTQSPLSLPVTPGEPASISCRSSQSLVHSNRNTYLHWYQQKPGQAPRLLIYKVSNRFSGVPDRFSGSGSGTDFTLKISRVEAEDVGVYYCGQGTQVPYTFGQGTKLEIKRTVAAPSVFIFPPSDEQLKSGTASVVCLLNNFYPREAKVQWKVDNALQSGNSQESVTEQDSKDSTYSLSSTLTLSKADYEKHKVYACEVTHQGLSSPVTKSFNRGEC
notes: one-arm antibody
B2: CE115HA000 N31R (antibody, human IgG1, kappa, L234A L235A, N297A, name in Kabat numbering)
heavy: QVQLVESGGGVVQPGRSLRLSCAASGFTFSRAWMHWVRQAPGKGLEWVAQIKAKSNNYATYYAESVKGRFTISRDDSKNSLYLQMNSLKTEDTAVYYCRYVHYGAYYGVDAWGQGTTVTVSSASTKGPSVFPLAPSSKSTSGGTAALGCLVKDYFPEPVTVSWNSGALTSGVHTFPAVLQSSGLYSLSSVVTVPSSSLGTQTYICNVNHKPSNTKVDKKVEPKSCDKTHTCPPCPAPEAAGGPSVFLFPPKPKDTLMISRTPEVTCVVVDVSHEDPEVKFNWYVDGVEVHNAKTKPREEQYASTYRVVSVLTVLHQDWLNGKEYKCKVSNKALPAPIEKTISKAKGQPREPQVYTLPPSRCELTKNQVSLSCAVKGFYPSDIAVEWESNGQPENNYKTTPPVLDSDGSFFLVSKLTVDKSRWQQGNVFSCSVMHEALHNHYTQKSLSLSPDYKDDDDK
chain: EPKSSDKTHTCPPCPAPELLGGPSVFLFPPKPKDTLMISRTPEVTCVVVDVSHEDPEVKFNWYVDGVEVHNAKTKPREEQYNSTYRVVSVLTVLHQDWLNGKEYKCKVSNKALPAPIEKTISKAKGQPREPQVCTLPPSRDELTKNQVSLWCLVKGFYPSDIAVEWESNGQPENNYKTTPPVLDSDGSFFLYSKLTVDKSRWQQGNVFSCSVMHEALHNRYTQKSLSLSP
light: DIVMTQSPLSLPVTPGEPASISCRSSQSLVHSNRNTYLHWYQQKPGQAPRLLIYKVSNRFSGVPDRFSGSGSGTDFTLKISRVEAEDVGVYYCGQGTQVPYTFGQGTKLEIKRTVAAPSVFIFPPSDEQLKSGTASVVCLLNNFYPREAKVQWKVDNALQSGNSQESVTEQDSKDSTYSLSSTLTLSKADYEKHKVYACEVTHQGLSSPVTKSFNRGEC
notes: one-arm antibody
B3: CE115HA000 N31W (antibody, human IgG1, kappa, L234A L235A, N297A, name in Kabat numbering)
heavy: QVQLVESGGGVVQPGRSLRLSCAASGFTFSWAWMHWVRQAPGKGLEWVAQIKAKSNNYATYYAESVKGRFTISRDDSKNSLYLQMNSLKTEDTAVYYCRYVHYGAYYGVDAWGQGTTVTVSSASTKGPSVFPLAPSSKSTSGGTAALGCLVKDYFPEPVTVSWNSGALTSGVHTFPAVLQSSGLYSLSSVVTVPSSSLGTQTYICNVNHKPSNTKVDKKVEPKSCDKTHTCPPCPAPEAAGGPSVFLFPPKPKDTLMISRTPEVTCVVVDVSHEDPEVKFNWYVDGVEVHNAKTKPREEQYASTYRVVSVLTVLHQDWLNGKEYKCKVSNKALPAPIEKTISKAKGQPREPQVYTLPPSRCELTKNQVSLSCAVKGFYPSDIAVEWESNGQPENNYKTTPPVLDSDGSFFLVSKLTVDKSRWQQGNVFSCSVMHEALHNHYTQKSLSLSPDYKDDDDK
chain: EPKSSDKTHTCPPCPAPELLGGPSVFLFPPKPKDTLMISRTPEVTCVVVDVSHEDPEVKFNWYVDGVEVHNAKTKPREEQYNSTYRVVSVLTVLHQDWLNGKEYKCKVSNKALPAPIEKTISKAKGQPREPQVCTLPPSRDELTKNQVSLWCLVKGFYPSDIAVEWESNGQPENNYKTTPPVLDSDGSFFLYSKLTVDKSRWQQGNVFSCSVMHEALHNRYTQKSLSLSP
light: DIVMTQSPLSLPVTPGEPASISCRSSQSLVHSNRNTYLHWYQQKPGQAPRLLIYKVSNRFSGVPDRFSGSGSGTDFTLKISRVEAEDVGVYYCGQGTQVPYTFGQGTKLEIKRTVAAPSVFIFPPSDEQLKSGTASVVCLLNNFYPREAKVQWKVDNALQSGNSQESVTEQDSKDSTYSLSSTLTLSKADYEKHKVYACEVTHQGLSSPVTKSFNRGEC
notes: one-arm antibody
B4: CE115HA000 N31Q (antibody, human IgG1, kappa, L234A L235A, N297A, name in Kabat numbering)
heavy: QVQLVESGGGVVQPGRSLRLSCAASGFTFSQAWMHWVRQAPGKGLEWVAQIKAKSNNYATYYAESVKGRFTISRDDSKNSLYLQMNSLKTEDTAVYYCRYVHYGAYYGVDAWGQGTTVTVSSASTKGPSVFPLAPSSKSTSGGTAALGCLVKDYFPEPVTVSWNSGALTSGVHTFPAVLQSSGLYSLSSVVTVPSSSLGTQTYICNVNHKPSNTKVDKKVEPKSCDKTHTCPPCPAPEAAGGPSVFLFPPKPKDTLMISRTPEVTCVVVDVSHEDPEVKFNWYVDGVEVHNAKTKPREEQYASTYRVVSVLTVLHQDWLNGKEYKCKVSNKALPAPIEKTISKAKGQPREPQVYTLPPSRCELTKNQVSLSCAVKGFYPSDIAVEWESNGQPENNYKTTPPVLDSDGSFFLVSKLTVDKSRWQQGNVFSCSVMHEALHNHYTQKSLSLSPDYKDDDDK
chain: EPKSSDKTHTCPPCPAPELLGGPSVFLFPPKPKDTLMISRTPEVTCVVVDVSHEDPEVKFNWYVDGVEVHNAKTKPREEQYNSTYRVVSVLTVLHQDWLNGKEYKCKVSNKALPAPIEKTISKAKGQPREPQVCTLPPSRDELTKNQVSLWCLVKGFYPSDIAVEWESNGQPENNYKTTPPVLDSDGSFFLYSKLTVDKSRWQQGNVFSCSVMHEALHNRYTQKSLSLSP
light: DIVMTQSPLSLPVTPGEPASISCRSSQSLVHSNRNTYLHWYQQKPGQAPRLLIYKVSNRFSGVPDRFSGSGSGTDFTLKISRVEAEDVGVYYCGQGTQVPYTFGQGTKLEIKRTVAAPSVFIFPPSDEQLKSGTASVVCLLNNFYPREAKVQWKVDNALQSGNSQESVTEQDSKDSTYSLSSTLTLSKADYEKHKVYACEVTHQGLSSPVTKSFNRGEC
notes: one-arm antibody
B5: CE115HA000 N31K (antibody, human IgG1, kappa, L234A L235A, N297A, name in Kabat numbering)
heavy: QVQLVESGGGVVQPGRSLRLSCAASGFTFSKAWMHWVRQAPGKGLEWVAQIKAKSNNYATYYAESVKGRFTISRDDSKNSLYLQMNSLKTEDTAVYYCRYVHYGAYYGVDAWGQGTTVTVSSASTKGPSVFPLAPSSKSTSGGTAALGCLVKDYFPEPVTVSWNSGALTSGVHTFPAVLQSSGLYSLSSVVTVPSSSLGTQTYICNVNHKPSNTKVDKKVEPKSCDKTHTCPPCPAPEAAGGPSVFLFPPKPKDTLMISRTPEVTCVVVDVSHEDPEVKFNWYVDGVEVHNAKTKPREEQYASTYRVVSVLTVLHQDWLNGKEYKCKVSNKALPAPIEKTISKAKGQPREPQVYTLPPSRCELTKNQVSLSCAVKGFYPSDIAVEWESNGQPENNYKTTPPVLDSDGSFFLVSKLTVDKSRWQQGNVFSCSVMHEALHNHYTQKSLSLSPDYKDDDDK
chain: EPKSSDKTHTCPPCPAPELLGGPSVFLFPPKPKDTLMISRTPEVTCVVVDVSHEDPEVKFNWYVDGVEVHNAKTKPREEQYNSTYRVVSVLTVLHQDWLNGKEYKCKVSNKALPAPIEKTISKAKGQPREPQVCTLPPSRDELTKNQVSLWCLVKGFYPSDIAVEWESNGQPENNYKTTPPVLDSDGSFFLYSKLTVDKSRWQQGNVFSCSVMHEALHNRYTQKSLSLSP
light: DIVMTQSPLSLPVTPGEPASISCRSSQSLVHSNRNTYLHWYQQKPGQAPRLLIYKVSNRFSGVPDRFSGSGSGTDFTLKISRVEAEDVGVYYCGQGTQVPYTFGQGTKLEIKRTVAAPSVFIFPPSDEQLKSGTASVVCLLNNFYPREAKVQWKVDNALQSGNSQESVTEQDSKDSTYSLSSTLTLSKADYEKHKVYACEVTHQGLSSPVTKSFNRGEC
notes: one-arm antibody
B6: CE115HA000 N31S (antibody, human IgG1, kappa, L234A L235A, N297A, name in Kabat numbering)
heavy: QVQLVESGGGVVQPGRSLRLSCAASGFTFSSAWMHWVRQAPGKGLEWVAQIKAKSNNYATYYAESVKGRFTISRDDSKNSLYLQMNSLKTEDTAVYYCRYVHYGAYYGVDAWGQGTTVTVSSASTKGPSVFPLAPSSKSTSGGTAALGCLVKDYFPEPVTVSWNSGALTSGVHTFPAVLQSSGLYSLSSVVTVPSSSLGTQTYICNVNHKPSNTKVDKKVEPKSCDKTHTCPPCPAPEAAGGPSVFLFPPKPKDTLMISRTPEVTCVVVDVSHEDPEVKFNWYVDGVEVHNAKTKPREEQYASTYRVVSVLTVLHQDWLNGKEYKCKVSNKALPAPIEKTISKAKGQPREPQVYTLPPSRCELTKNQVSLSCAVKGFYPSDIAVEWESNGQPENNYKTTPPVLDSDGSFFLVSKLTVDKSRWQQGNVFSCSVMHEALHNHYTQKSLSLSPDYKDDDDK
chain: EPKSSDKTHTCPPCPAPELLGGPSVFLFPPKPKDTLMISRTPEVTCVVVDVSHEDPEVKFNWYVDGVEVHNAKTKPREEQYNSTYRVVSVLTVLHQDWLNGKEYKCKVSNKALPAPIEKTISKAKGQPREPQVCTLPPSRDELTKNQVSLWCLVKGFYPSDIAVEWESNGQPENNYKTTPPVLDSDGSFFLYSKLTVDKSRWQQGNVFSCSVMHEALHNRYTQKSLSLSP
light: DIVMTQSPLSLPVTPGEPASISCRSSQSLVHSNRNTYLHWYQQKPGQAPRLLIYKVSNRFSGVPDRFSGSGSGTDFTLKISRVEAEDVGVYYCGQGTQVPYTFGQGTKLEIKRTVAAPSVFIFPPSDEQLKSGTASVVCLLNNFYPREAKVQWKVDNALQSGNSQESVTEQDSKDSTYSLSSTLTLSKADYEKHKVYACEVTHQGLSSPVTKSFNRGEC
notes: one-arm antibody

target: T1, CD3 epsilon homodimer protein (UniProt P07766 23-126); test: SPR, CD3 epsilon homodimer on chip, one-arm antibody as analyte;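 further: surface plasmon resonance at 25 °C with CD3 epsilon homodimer amine-coupled to a CM4 sensor chip, antibody injected as analyte, HBS-EP+ as running buffer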
T1 construct: also called CD3 (CD3 epsilon)
T1 sequence (P07766 23-126): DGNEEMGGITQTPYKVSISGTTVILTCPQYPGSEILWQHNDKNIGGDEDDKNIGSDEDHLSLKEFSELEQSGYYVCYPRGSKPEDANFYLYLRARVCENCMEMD

Point of comparison: B5, “KD ratio (KD of CE115HA000/KD of altered form)” value 0.97. Against it:
- B1 — lower, 0.62
- B2 — higher, 0.98
- B3 — higher, 1.07
- B4 — lower, 0.94
- B6 — lower, 0.67

Source: patent US20210388087A1 (Chugai, published 2021)
